Target: human BCMA (huBCMA) on cells (human) (UniProt Q02223)
Experiment: FACS, H929 cells, negative control

Chain of human BCMA (huBCMA) on cells (human) (Q02223 whole entry N81S): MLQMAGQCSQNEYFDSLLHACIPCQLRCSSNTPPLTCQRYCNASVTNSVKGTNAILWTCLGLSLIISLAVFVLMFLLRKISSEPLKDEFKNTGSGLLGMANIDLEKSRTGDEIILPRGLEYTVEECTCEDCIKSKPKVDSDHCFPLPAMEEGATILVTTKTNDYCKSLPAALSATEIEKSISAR

MFI: 8 MFI
Substance: hu IgG1 (antibody)
